Assay results reported in patent US20230192897A1 (NUMAB THERAPEUTICS, published 2023).

Columns and labels:
[1] = biological target: T1, Fc tagged human PDL1 (human, UniProt Q9NZQ7 19-239); assay: SPR
T1 construct: Bought (Sino Biological, cat. 10084-H02H); captured on the SPR chip; also called PDL1-Fc chimeric protein
How it was run: (§1)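 Kinetics were fitted with a one-to-one Langmuir model to give apparent ka, kd and KD. Binders at 0.12-90 nM (three-fold series) flowed 3 min, with 10 min dissociation and 3 M MgCl₂ regeneration, on a Biacore T200.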

[2] = biological target: cynomolgus CD137-Fc chimeric protein (cynomolgus monkey, UniProt A9YYE7 24-186); assay: SPR
How it was run: as §1

[3] = biological target: T2, mouse CD137-Fc chimeric protein (mouse, UniProt P20334 24-187, limits assumed); assay: SPR
T2 sequence (looked up): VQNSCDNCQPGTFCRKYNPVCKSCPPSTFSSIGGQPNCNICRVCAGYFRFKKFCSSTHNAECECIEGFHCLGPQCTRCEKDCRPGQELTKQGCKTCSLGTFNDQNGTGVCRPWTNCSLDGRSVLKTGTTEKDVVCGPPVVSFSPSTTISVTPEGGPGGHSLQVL
How it was run: as §1

[4] = biological target: T3, Fc tagged human CD137 (human, UniProt Q07011 24-186); assay: SPR
T3 construct: also called CD137-Fc chimeric protein
How it was run: as §1

[5] = biological target: T4, CD137 on Jurkat NFkB reporter cells (human, UniProt Q07011 24-255); assay: cell-based or functional assay
[6] = biological target: T4, CD137 on Jurkat NFkB reporter cells; assay: cell-based or functional assay; remark: listed apart in the source
[7] = biological target: T4, CD137 on Jurkat NFkB reporter cells; assay: cell-based or functional assay; remark: listed apart in the source
[8] = biological target: T4, CD137 on Jurkat NFkB reporter cells; assay: cell-based or functional assay; remark: listed apart in the source
[9] = biological target: T4, CD137 on Jurkat NFkB reporter cells; assay: cell-based or functional assay; remark: listed apart in the source
[10] = biological target: T4, CD137 on Jurkat NFkB reporter cells; assay: cell-based or functional assay; remark: listed apart in the source
[11] = biological target: human PDL1 on cells (human, UniProt Q9NZQ7 19-290); assay: cell-based or functional assay
[12] = biological target: human PDL1 extracellular domain (human, UniProt Q9NZQ7 19-238); assay: SPR, IgG format captured
Method: (§2) Affinity to PDL1 of the different species was determined by SPR measurements using a Biacore T200 device (GE Healthcare). An antibody specific for the Fc region of human IgGs was immobilized on a sensor chip (CM5 sensor chip, GE Healthcare) by amine-coupling. For all formats, with the exception of the Fc containing Morrison formats, PDL1-Fc chimeric protein from different species were captured by the immobilized antibody.
(§3) The Fc containing formats were directly captured by the antibody specific for the Fc region of human IgGs. Two-fold serial dilutions of PDL1 extracellular domain or CD137 extracellular domain ranging from 90 to 0.35 nM were tested for binding to the IgG captured on the biosensor chip. After each injection cycle, surfaces were regenerated with one injection of a 3 M MgCl2 solution.

[13] = biological target: T5, human CD137 extracellular domain (human, UniProt Q07011 24-186); assay: SPR, IgG format captured
T5 construct: also called CD137 (PeproTech, cat. 310-15)
Method: as §2, §3

[14] = biological target: T6, biotinylated human PDL1 (human, UniProt Q9NZQ7 19-238, limits assumed, biotinylated); assay: competition ELISA B7.1/PDL1
T6 construct: also called biotinylated PDL1
How it was run: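 Test mixtures containing biotinylated human PDL1 were pre-incubated 1 h at room temperature, then incubated 1.5 h on the plate under agitation. Bound PDL1 detected with 10 ng/ml streptavidin-polyHRP40 and TMB, stopped at 6 min with HCl, read at 450 nm minus 690 nm. IC₅₀ from 4PL fit.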

[15] = biological target: T6, biotinylated human PDL1; assay: competition ELISA PD-1/PDL1

B1: PRO1124 (bispecific antibody)
chain: DIQMTQSPSSLSASVGDRVTITCQASQSINDYLAWYQQKPGKAPKLLIYKASTLASGVPSRFSGSGSGTDFTLTISSLQPEDFATYYCQQGYIITDIDNVFGTGTKVTVLGGGGGSQVQLQESGPGLVKPSETLSLTCKASGFSFSNSYWICWVRQPPGKGLEWIGCTFVGSSDSTYYANWAKGRVTISKDSSKNQVSLKLSSVTAADTAVYFCARHPSDAVYGYANNLWGQGTLVTVSSGGGGSGGGGSGGGGSGGGGSLQMTQSPSSLSASVGDRVTITCQASQSINNVLAWYQQKPGKPPKLLIYRASTLASGVPSRFSGSGSGTDFTLTISSLQPEDFATYYCQSSYGNYGDFGTGTKVTVLGGGGGSQVQLQESGPGLVKPSETLSLTCKVSGFSFSSGYDMCWIRQPPGKGLEWIGCVVAGSVDITYYASWAKGRVTISVDSSKNQFSLKLSSVTAADTAVYYCARKDAYSDAFNLWGQGTLVTVSS
notes: scDb; also called 38-02-A04 sc06 Full scDb-i/33-03-G02 sc01 scDb-o
koff [1]: 0.0002 s⁻¹ | kon [1]: 3.1e+06 M⁻¹ s⁻¹ | koff [2]: 0.00033 s⁻¹ | kon [3]: 200000 M⁻¹ s⁻¹ | Kd [4]: ≤ 0.015 nM | fold improvement of affinity against PRO885 [4]: > 200 fold | koff [4]: < 1e-05 s⁻¹ | kon [4]: 680000 M⁻¹ s⁻¹ | EC50, NFkB reporter, CHO-PDL1 [5]: 3.68 ng/mL | Top of curve fit, NFkB reporter, CHO-PDL1 [5]: 229 | EC50, NFkB reporter, HCC827 without IFNg [6]: 5.62 ng/mL | Top of curve fit, NFkB reporter, HCC827 without IFNg [6]: 113 | EC50, NFkB reporter, HCC827 with IFNg [7]: 4.83 ng/mL | Top of curve fit, NFkB reporter, HCC827 with IFNg [7]: 188 | IC50 (ng/ml), NFkB reporter, CHO-PD-L1 [8]: 3.68 ng/mL | IC50 (ng/ml), NFkB reporter, HCC827 + IFNg [8]: 4.83 ng/mL | IC50 (ng/ml), NFkB reporter, HCC827 - IFNg [8]: 5.62 ng/mL | max. activation (%), NFkB reporter, CHO-PD-L1 [8]: 229% | max. activation (%), NFkB reporter, HCC827 + IFNg [8]: 188% | max. activation (%), NFkB reporter, HCC827 - IFNg [8]: 113% | rel. IC50 (urelumab/test), NFkB reporter, CHO-PD-L1 [8]: 23.5 fold | rel. IC50 (urelumab/test), NFkB reporter, HCC827 + IFNg [8]: 22.4 fold | rel. IC50 (urelumab/test), NFkB reporter, HCC827 - IFNg [8]: 19.9 fold

B2: PRO1058 (other)
chain: DIQMTQSPSSLSASVGDRVTITCQASQSINDYLAWYQQKPGKAPKLLIYKASTLASGVPSRFSGSGSGTDFTLTISSLQPEDFATYYCQQGYIITDIDNVFGTGTKVTVLGGGGGSQVQLQESGPGLVKPSETLSLTCKVSGFSFNNDYDMCWIRQPPGKGLEWIGCIDTGDGSTYYASWAKGRVTISVDSSKNQFSLKLSSVTAADTAVYYCAREAASSSGYGMGYFDLWGQGTLVTVSSGGGGSGGGGSGGGGSGGGGSIQMTQSPSSLSASVGDRVTITCQSSQSVYDNNWLAWYQQKPGKAPKLLIYRASNLASGVPSRFSGSGSGTDFTLTISSLQPEDFATYYCQGTYLSSNWYWAFGTGTKVTVLGGGGGSQVQLQESGPGLVKPSETLSLTCKVSGFSFSSGYDMCWIRQPPGKGLEWIGCVVAGSVDITYYASWAKGRVTISVDSSKNQFSLKLSSVTAADTAVYYCARKDAYSDAFNLWGQGTLVTVSSGGGGSGGGGSVVMTQSPSSLSASVGDRVTITCQASQIISSRSAWYQQKPGQPPKLLIYQASKLASGVPSRFSGSGSGTDFTLTISSLQPEDFATYYCQCTYIDSNFGAFGGGTKLTVLGGGGGSGGGGSGGGGSGGGGSEVQLVESGGGLVQPGGSLRLSCAASGFSFSSSYWICWVRQAPGKGLEWVGCVFTGDGTTYYASWAKGRFTISRDNSKNTVYLQMNSLRAEDTATYFCARPVSVYYYGMDLWGQGTLVTVSS
notes: trispecific scDb-scFv; also called 38-27-C05 sc01 scDb-i/33-03-G02 sc01 scDb-o/23-13-A01-sc03, sk17sh4
binding result [1]: binds | koff [4]: 0.0021 s⁻¹ | EC50, NFkB reporter, CHO-PDL1, 6 h, +HSA [9]: 70.9 ng/mL | EC50, NFkB reporter, CHO-PDL1, 24 h, +HSA [10]: 121 ng/mL | IC50 (ng/ml), NFkB reporter, CHO-PD-L1, 24 h, +HSA [8]: 121 ng/mL | max. activation (%), NFkB reporter, CHO-PD-L1, 24 h, +HSA [8]: 36.2% | rel. IC50 (urelumab/test), NFkB reporter, CHO-PD-L1, 24 h, +HSA [8]: 0.64 fold

B3: PRO1059 (bispecific antibody, human IgG1, kappa, L234A L235A)
light: DIQMTQSPSSLSASVGDRVTITCQASQSINDYLAWYQQKPGKAPKLLIYKASTLASGVPSRFSGSGSGTDFTLTISSLQPEDFATYYCQQGYIITDIDNVFGTGTKVTVLGTVAAPSVFIFPPSDEQLKSGTASVVCLLNNFYPREAKVQWKVDNALQSGNSQESVTEQDSKDSTYSLSSTLTLSKADYEKHKVYACEVTHQGLSSPVTKSFNRGECGGGGSGGGGSIQMTQSPSSLSASVGDRVTITCQASQSINNVLAWYQQKPGKAPKLLIYRASTLASGVPSRFSGSGSGTDFTLTISSLQPEDFATYYCQSSYGNYGDFGTGTKVTVLGGGGGSGGGGSGGGGSGGGGSQVQLQESGPGLVKPSETLSLTCKVSGFSFSNSYWICWIRQPPGKGLEWIGCTFVGSSDSTYYANWAKGRVTISVDSSKNQFSLKLSSVTAADTAVYYCARHPSDAVYGYANNLWGQGTLVTVSS
heavy: QVQLQESGPGLVKPSETLSLTCKVSGFSFSSGYDMCWIRQPPGKGLEWIGCVVAGSVDITYYASWAKGRVTISVDSSKNQFSLKLSSVTAADTAVYYCARKDAYSDAFNLWGQGTLVTVSSASTKGPSVFPLAPSSKSTSGGTAALGCLVKDYFPEPVTVSWNSGALTSGVHTFPAVLQSSGLYSLSSVVTVPSSSLGTQTYICNVNHKPSNTKVDKRVEPKSCDKTHTCPPCPAPEAAGGPSVFLFPPKPKDTLMISRTPEVTCVVVDVSHEDPEVKFNWYVDGVEVHNAKTKPREEQYNSTYRVVSVLTVLHQDWLNGKEYKCKVSNKALGAPIEKTISKAKGQPREPQVYTLPPSREEMTKNQVSLTCLVKGFYPSDIAVEWESNGQPENNYKTTPPVLDSDGSFFLYSKLTVDKSRWQQGNVFSCSVMHEALHNHYTQKSLSLSPGK
notes: silent hIgG1 anti-PDL1 with anti-CD137 scFv on the light chain; also called 33-03-G02 IgG1 LC with 38-02-A04 sc01 scFv; Morrison-L
IC50 (ng/ml), NF-AT potency assay [11]: 93.8 ng/mL | rel. IC50 (avelumab/test) [11]: 0.52 fold | IC50 (ng/ml), NFkB reporter, CHO-PD-L1, 24 h [8]: 289 ng/mL | rel. IC50 (urelumab/test), NFkB reporter, CHO-PD-L1, 24 h [8]: 0.09 fold | koff [12]: 6.5e-05 s⁻¹ | Kd [13]: 2.3 nM | koff [13]: 0.00042 s⁻¹ | kon [13]: 180000 M⁻¹ s⁻¹ | IC50 [14]: 29 ng/mL | rel. IC50 (IC50 avelumab/IC50 test) [14]: 0.3 fold | IC50 [15]: 4.54 ng/mL | rel. IC50 (IC50 avelumab/IC50 test) [15]: 0.37 fold
